To fix the notation:
B1: Zinc finger protein ZIC 2, residues 250 to 295; numbered along this chain, O95409 (parent)
chain: QCIKQELICKWIDPEQLSNPKKSCNKTFSTMHELVTHVSVEHVGGP

± gives the uncertainty stated by the source.

The variants in the data set derive from B1. Briefly: abundance fitness (aPCA) (normalised: wild type 0, dead -1); higher = more abundant; growth selection in yeast, the domain comes from the species named. The note with it: Homo sapiens.
As for QCIKQELICKWIDPEDLSNPKKSCNKTFSTMHELVTHVSVEHVGGP [Q16D], the abundance fitness was -0.074 ± 0.11.
The same measure for QCIKQELICKWIDPENLSNPKKSCNKTFSTMHELVTHVSVEHVGGP [Q16N]: -0.414 ± 0.14; for QCIKQELICKWIDPEILSNPKKSCNKTFSTMHELVTHVSVEHVGGP [Q16I]: -0.11 ± 0.1.
With QCIKQELICKWIDPEALSNPKKSCNKTFSTMHELVTHVSVEHVGGP [Q16A] the figure was -0.144 ± 0.091; with QCIKQELICKWIDPETLSNPKKSCNKTFSTMHELVTHVSVEHVGGP [Q16T], -0.051 ± 0.1.
As to QCIKQELICKWIDPELLSNPKKSCNKTFSTMHELVTHVSVEHVGGP [Q16L], the abundance fitness was 0.068 ± 0.087.
The same measure for QCIKQELICKWIDPTQLSNPKKSCNKTFSTMHELVTHVSVEHVGGP [E15T]: -0.31 ± 0.1.
Turning to QCIKQELICKWIDPEQLSNPKKSCNKFFSTMHELVTHVSVEHVGGP [T27F], the abundance fitness amounted to 0.174 ± 0.11.
The same measure for QCIKQELICKWIDPEQLSNPKKSCNKGFSTMHELVTHVSVEHVGGP [T27G]: 0.104 ± 0.083; for QCIKQELICKWIDPEQLSNPKKSCNKHFSTMHELVTHVSVEHVGGP [T27H]: -0.449 ± 0.14; for QCIKQELICKWIDPEQLSNPKKSCNKWFSTMHELVTHVSVEHVGGP [T27W]: -0.296 ± 0.089.
For QCIKQELICKWIDPEQLSNPKKSCNKIFSTMHELVTHVSVEHVGGP [T27I], the abundance fitness stood at 0.381 ± 0.11.
With QCIKQELICKWIDPEQLSNPKKSCNKAFSTMHELVTHVSVEHVGGP [T27A] the figure was -0.116 ± 0.089; with QCIKQELICKWIDPEQLSNPKKSCNKVFSTMHELVTHVSVEHVGGP [T27V], 0.06 ± 0.088.
With QCIEQELICKWIDPEQLSNPKKSCNKTFSTMHELVTHVSVEHVGGP [K4E] the figure was 0.088 ± 0.099; with QCIMQELICKWIDPEQLSNPKKSCNKTFSTMHELVTHVSVEHVGGP [K4M], -0.105 ± 0.11; with QCINQELICKWIDPEQLSNPKKSCNKTFSTMHELVTHVSVEHVGGP [K4N], -0.085 ± 0.13.
The same measure for QCIIQELICKWIDPEQLSNPKKSCNKTFSTMHELVTHVSVEHVGGP [K4I]: -0.734 ± 0.14.
As for QCIKQELICKWIDPEQLSNPKKSCNKTFSTMHALVTHVSVEHVGGP [E33A], the abundance fitness was -0.342 ± 0.088.
The same measure for QCIKQELICKWIDPEQLSNPKKSCNKTFSTMHHLVTHVSVEHVGGP [E33H]: -0.434 ± 0.14.
With QCIKQELICKWIDPEQLSNPKKSCNKTFSTMHGLVTHVSVEHVGGP [E33G] the figure was -0.166 ± 0.084; with QCIKQELICKWIDPEQLSNPKKSCNKTFSTMHFLVTHVSVEHVGGP [E33F], -1.03 ± 0.14.
With QCIKQELICKWIDPEQLSNPKKSCNKTFSTMHELVLHVSVEHVGGP [T36L] the figure was -0.453 ± 0.089; with QCIKQELICKWIDPEQLSNPKKSCNKTFSTMHELVWHVSVEHVGGP [T36W], -0.081 ± 0.097.
Take QCIKQELICKWIDPEQLSNPKKSHNKTFSTMHELVTHVSVEHVGGP [C24H]: the abundance fitness was -0.698 ± 0.16.
With QCIKQELICKWIDPEQLSNPKKSSNKTFSTMHELVTHVSVEHVGGP [C24S] the figure was -0.766 ± 0.094; with QCIKQELICKWIDPEQLSNPKKSENKTFSTMHELVTHVSVEHVGGP [C24E], -0.488 ± 0.099; with QCIKQELICKWIDPEQLSNPKKSVNKTFSTMHELVTHVSVEHVGGP [C24V], -0.86 ± 0.097.
The same measure for QCIKQELICKWIDPEQTSNPKKSCNKTFSTMHELVTHVSVEHVGGP [L17T]: 0.035 ± 0.097.
Turning to QCIKQELICKWIDPEQDSNPKKSCNKTFSTMHELVTHVSVEHVGGP [L17D], the abundance fitness was 0.176 ± 0.12.
In the case of QCIKQELICKWIDPEQWSNPKKSCNKTFSTMHELVTHVSVEHVGGP [L17W], the abundance fitness was -0.623 ± 0.093.
With QCIKQELICKWIDPEQLSNPKKSCNKTFSTMHELVTHRSVEHVGGP [V38R], the abundance fitness was determined as 0.607 ± 0.083.
Regarding QCIKQELICKWIDPEQLCNPKKSCNKTFSTMHELVTHVSVEHVGGP [S18C], the abundance fitness is -0.06 ± 0.1.
The same measure for QCIKQELICKWIDPEQLLNPKKSCNKTFSTMHELVTHVSVEHVGGP [S18L]: -0.145 ± 0.088; for QCIKQELICKWIDPEQLINPKKSCNKTFSTMHELVTHVSVEHVGGP [S18I]: -0.409 ± 0.12.
For the variant QCIKQELICKWIDPEQLSNPKKSCNKTFSTMMELVTHVSVEHVGGP [H32M], the abundance fitness is -0.263 ± 0.095.
With QCIKQELICKWIDPEQLSNPKKSCNKTFSTMAELVTHVSVEHVGGP [H32A] the figure was 0.14 ± 0.086.
The same measure for QCIKQELICKWIDPEQLSNPKKSCNKTFSTMCELVTHVSVEHVGGP [H32C]: -0.172 ± 0.1.
With QCIKQELICKWIDPEQLSNCKKSCNKTFSTMHELVTHVSVEHVGGP [P20C] the figure was -0.832 ± 0.11; with QCIKQELICKWIAPEQLSNPKKSCNKTFSTMHELVTHVSVEHVGGP [D13A], -0.101 ± 0.091.
QCIKQELICKWIWPEQLSNPKKSCNKTFSTMHELVTHVSVEHVGGP [D13W]: the abundance fitness is -0.311 ± 0.093.
With QCIKQELICKWIVPEQLSNPKKSCNKTFSTMHELVTHVSVEHVGGP [D13V] the figure was -0.434 ± 0.091.
Take QCIKQELICKWIMPEQLSNPKKSCNKTFSTMHELVTHVSVEHVGGP [D13M]: the abundance fitness is -0.568 ± 0.12.
The same measure for QCIKQELICKWIEPEQLSNPKKSCNKTFSTMHELVTHVSVEHVGGP [D13E]: -0.235 ± 0.094.
With QCIKQELICKWIDPEQLSMPKKSCNKTFSTMHELVTHVSVEHVGGP [N19M] the figure was -0.067 ± 0.099; with QCIKQELICKWIDPEQLSYPKKSCNKTFSTMHELVTHVSVEHVGGP [N19Y], -0.451 ± 0.13.
For the variant QCIKQELICKWIDPEQLSCPKKSCNKTFSTMHELVTHVSVEHVGGP [N19C], the abundance fitness is -0.957 ± 0.12.
The same measure for QCIKQELICKWIDPEQLSIPKKSCNKTFSTMHELVTHVSVEHVGGP [N19I]: 0.164 ± 0.13; for QCIKQELICKWIDPEQLSQPKKSCNKTFSTMHELVTHVSVEHVGGP [N19Q]: 0.132 ± 0.099.
With QCSKQELICKWIDPEQLSNPKKSCNKTFSTMHELVTHVSVEHVGGP [I3S] the figure was -0.526 ± 0.095.
Turning to QCIKQELICKWIDSEQLSNPKKSCNKTFSTMHELVTHVSVEHVGGP [P14S], the abundance fitness was -0.28 ± 0.092.
In the case of QCIKQELICKWIDFEQLSNPKKSCNKTFSTMHELVTHVSVEHVGGP [P14F], the abundance fitness is -0.788 ± 0.15.
The same measure for QCIKQELICKWIDWEQLSNPKKSCNKTFSTMHELVTHVSVEHVGGP [P14W]: -0.484 ± 0.096.
With QCIKQQLICKWIDPEQLSNPKKSCNKTFSTMHELVTHVSVEHVGGP [E6Q] the figure was -0.207 ± 0.21; with QCIKQFLICKWIDPEQLSNPKKSCNKTFSTMHELVTHVSVEHVGGP [E6F], -1.04 ± 0.41.
With QCIKQHLICKWIDPEQLSNPKKSCNKTFSTMHELVTHVSVEHVGGP [E6H] the figure was -0.687 ± 0.23.

The record behind these values is the Human Domainome abundance scans (Beltran et al. 2025).
